Columns and labels:
[1] = molecular target: T1, human ROR1 extracellular domain (ECD) protein (human, UniProt Q01973 30-406); experiment: competitive phage ELISA: soluble ROR1 against ROR1-coated plate
T1 construct: also called hROR1-ECD; human ROR1-ECD
Procedure: Purified phage antibodies were first diluted serially in PBST buffer, and tested for binding to a ROR1-coated plate. The dilution that gave 50-80% saturating signal was used in the solution binding assay in which phage were first incubated with increasing concentration of ROR1 for one to two hours, and then transferred to a ROR1-coated plate for 10-15 minutes to capture the unbound phage.

human ROR2-ECD = molecular target: T2, human ROR2-ECD (human, UniProt Q01974 34-403); experiment: phage antibody protein ELISA
T2 construct: extracellular domain; also called hROR2
T2 sequence (Q01974 34-403): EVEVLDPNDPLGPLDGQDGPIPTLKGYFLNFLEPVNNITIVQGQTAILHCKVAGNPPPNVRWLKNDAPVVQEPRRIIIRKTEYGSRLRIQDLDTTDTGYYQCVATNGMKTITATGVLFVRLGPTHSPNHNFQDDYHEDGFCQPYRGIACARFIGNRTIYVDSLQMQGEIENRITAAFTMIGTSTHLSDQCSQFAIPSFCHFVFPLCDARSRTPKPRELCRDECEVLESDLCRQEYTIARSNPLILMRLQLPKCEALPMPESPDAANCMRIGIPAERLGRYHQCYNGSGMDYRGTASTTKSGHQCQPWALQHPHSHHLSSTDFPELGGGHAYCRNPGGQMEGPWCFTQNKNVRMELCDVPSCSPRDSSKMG
Procedure: (§1) Binding specificities of the 45 phage antibodies were determined by protein ELISA against human ROR1-ECD, human ROR2-ECD and mouse ROR1-ECD (FIG. 12).

mouse ROR1-ECD = molecular target: T3, mouse ROR1-ECD (mouse, UniProt Q9Z139 30-406); experiment: phage antibody protein ELISA
T3 construct: extracellular domain; also called mROR1
T3 sequence (Q9Z139 30-406): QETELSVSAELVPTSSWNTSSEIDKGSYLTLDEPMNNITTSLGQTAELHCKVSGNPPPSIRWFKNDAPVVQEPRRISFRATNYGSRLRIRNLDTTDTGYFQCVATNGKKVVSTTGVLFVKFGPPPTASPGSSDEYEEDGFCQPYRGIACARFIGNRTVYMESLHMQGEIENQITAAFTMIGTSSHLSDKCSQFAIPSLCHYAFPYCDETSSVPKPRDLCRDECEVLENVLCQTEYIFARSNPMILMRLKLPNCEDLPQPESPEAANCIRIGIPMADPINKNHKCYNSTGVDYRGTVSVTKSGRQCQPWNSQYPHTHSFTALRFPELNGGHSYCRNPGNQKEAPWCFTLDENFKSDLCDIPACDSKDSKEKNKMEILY
Procedure: as §1

[2] = molecular target: T4, ROR1 extracellular domain Fc-fusion, dimer (human, UniProt Q01973 30-406); experiment: SPR, immobilised ROR1 dimer, antibody injected, 1:1 model; apparent affinity
T4 construct: also called ROR1 dimer; hROR1 dimeric ECD-Fc fusion protein; not shown: Fc part
T4 sequence (Q01973 30-406): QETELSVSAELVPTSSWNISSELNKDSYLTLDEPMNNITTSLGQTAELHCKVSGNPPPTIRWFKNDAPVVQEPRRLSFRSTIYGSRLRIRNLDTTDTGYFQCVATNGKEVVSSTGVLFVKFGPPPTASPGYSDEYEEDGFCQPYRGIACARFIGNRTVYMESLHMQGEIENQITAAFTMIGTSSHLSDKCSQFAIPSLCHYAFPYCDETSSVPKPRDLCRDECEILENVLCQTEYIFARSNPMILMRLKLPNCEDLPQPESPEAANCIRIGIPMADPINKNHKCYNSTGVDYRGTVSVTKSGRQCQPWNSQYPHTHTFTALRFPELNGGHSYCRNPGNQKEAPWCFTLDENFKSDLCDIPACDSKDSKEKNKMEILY
Procedure: (§2) The binding affinities of ROR1 extracellular domain dimer and monomer for anti-ROR1 antibodies were determined by surface plasmon resonance (SPR). ROR1 extracellular domain Fc-fusion, “dimer,” and ROR1 extracellular domain Fc fusion:Fc heterodimer, “monomer,” are the dimer and monomeric forms of ROR1 used for affinity analysis, respectively. Briefly, ROR1 dimer and monomer were directly immobilized to a CM4 chip using an amine coupling kit and 100 mM ethylenediamine in 100 mM Sodium Borate buffer, pH 8.0 as the blocking reagent. Approximately 100-150 RU of ROR1 dimer and monomer were immobilized on separate flow cells and an un-derivatized flow cell was used as a reference control. […] Dissociation was followed for 180 seconds. The association constant, dissociation constant, and affinity of each anti-ROR1 antibody was calculated using the Biacore T200 Evaluation Software 1:1 binding model.
(§3) Sensorgrams were normalized to 100 RU using the “binding stability point” at the end of the association phase but before the dissociation phase.

[3] = molecular target: T4, ROR1 extracellular domain Fc-fusion, …; experiment: SPR, immobilised ROR1 dimer, antibody injected, 1:1 model
Procedure: as §2, §3

[4] = molecular target: T5, ROR1 extracellular domain Fc fusion:Fc heterodimer, monomer (human); experiment: SPR, immobilised ROR1 monomer, antibody injected, 1:1 model
T5 construct: Heterodimer of one ROR1 ECD-Fc chain and one Fc chain; also called ROR1 monomer; hROR1 monomeric ECD-Fc fusion protein; not shown: Fc part; Fc alone
T5 sequence (Q01973 30-406, one chain of several): as the sequence (Q01973 30-406) above
Procedure: as §2, §3

[5] = molecular target: T4, ROR1 extracellular domain Fc-fusion, …; experiment: SPR, immobilised ROR1 dimer, antibody injected, 1:1 model; apparent affinity; second entry of 601-14
Procedure: as §2, §3

[6] = molecular target: T5, ROR1 extracellular domain Fc fusion:Fc …; experiment: SPR, immobilised ROR1 monomer, antibody injected, 1:1 model; second entry of 601-14
Procedure: as §2, §3

[7] = molecular target: T4, ROR1 extracellular domain Fc-fusion, …; experiment: SPR, immobilised ROR1 dimer, antibody injected, 1:1 model; second entry of 601-14
Procedure: as §2, §3

T1 sequence (Q01973 30-406 limits assumed): as the sequence (Q01973 30-406) above

| Binder | IC50 [1] | binding result (human ROR2-ECD) | binding result (mouse ROR1-ECD) | Kd [2] | koff [3] | kon [3] | Kd [4] | koff [4] | kon [4] | Kd [5] | Kd [6] | koff [6] | kon [6] | koff [7] | kon [7] |
| --- | --- | --- | --- | --- | --- | --- | --- | --- | --- | --- | --- | --- | --- | --- | --- |
| P601-56 (scFv, V domains shown) VH: QLQLQESGPGLVKPSETLSLTCTVSGGSISSSSYYWGWIRQPPGKGLEWIGSIYYSGSTYYNPSLKSRVTISVDTSKNQFSLKLGSVTAADTAVYYCARHDGTDAFDIWGQGTTVTVSS VL: QSVLTQPASVSGSPGQSITISCTGTSSDFGDYDYVSWYQQHPGKAPKLMIYDVSDRPSGVSNRFSGSKSGNTASLTISGLQAEDEADYFCSSLTTSSTLVFGGGTKLTVL | 1.85 nM | no binding | no binding | – | – | – | – | – | – | – | – | – | – | – | – |
| Antibody 601-14 (antibody, V domains shown) VH: QVQLVQSGAEVKKPGESLKISCKDSGYSFTNYWLGWVRQMPGKGLEWMGIIYPGDSDTRYSPSFRGQVTISADKSISTAYLQWSSLKASDTAMYYCARLNLATHTAFDIWGQGTTVTVSS VL: QSVLTQPASVSGSPGQSITISCTGTSSDVGGYNYVSWYQQHPGKAPKLMIYDVSNRPSGVSNRFSGSKSGNTASLTISGLQAEDEADYYCSSYTSSSTLWVFGGGTKLTVLG | – | – | – | 0.2 nM | 0.00066 s⁻¹ | 2.7e+06 M⁻¹ s⁻¹ | 0.4 nM | 0.0013 s⁻¹ | 3.2e+06 M⁻¹ s⁻¹ | 0.6 nM | 0.8 nM | 0.0021 s⁻¹ | 2.4e+06 M⁻¹ s⁻¹ | 0.0015 s⁻¹ | 2.4e+06 M⁻¹ s⁻¹ |
